Measurements: patent US20070293656A1, “COLLAGEN BINDING PEPTIDES” (Epix Pharmaceuticals, Inc., priority 2005, published 2007)
Bridge positions count the residues as written; N and C are the ends. Ends that are not written are not given here.

Biological target: T1, human collagen type I (acid soluble, extracted from placenta, Sigma C7774) (human, UniProt P02452 162-1218; P08123 80-1119)
T1 construct: gelled and dried as a fibril film in the assay; also called dried human collagen; h-Collagen
Test: dried collagen assay
Method: An additional 90 μL is reserved in a HPLC glass vial as a measure of the total concentration.

T1 sequence (P02452 162-1218 limits assumed, chain 1 of 2): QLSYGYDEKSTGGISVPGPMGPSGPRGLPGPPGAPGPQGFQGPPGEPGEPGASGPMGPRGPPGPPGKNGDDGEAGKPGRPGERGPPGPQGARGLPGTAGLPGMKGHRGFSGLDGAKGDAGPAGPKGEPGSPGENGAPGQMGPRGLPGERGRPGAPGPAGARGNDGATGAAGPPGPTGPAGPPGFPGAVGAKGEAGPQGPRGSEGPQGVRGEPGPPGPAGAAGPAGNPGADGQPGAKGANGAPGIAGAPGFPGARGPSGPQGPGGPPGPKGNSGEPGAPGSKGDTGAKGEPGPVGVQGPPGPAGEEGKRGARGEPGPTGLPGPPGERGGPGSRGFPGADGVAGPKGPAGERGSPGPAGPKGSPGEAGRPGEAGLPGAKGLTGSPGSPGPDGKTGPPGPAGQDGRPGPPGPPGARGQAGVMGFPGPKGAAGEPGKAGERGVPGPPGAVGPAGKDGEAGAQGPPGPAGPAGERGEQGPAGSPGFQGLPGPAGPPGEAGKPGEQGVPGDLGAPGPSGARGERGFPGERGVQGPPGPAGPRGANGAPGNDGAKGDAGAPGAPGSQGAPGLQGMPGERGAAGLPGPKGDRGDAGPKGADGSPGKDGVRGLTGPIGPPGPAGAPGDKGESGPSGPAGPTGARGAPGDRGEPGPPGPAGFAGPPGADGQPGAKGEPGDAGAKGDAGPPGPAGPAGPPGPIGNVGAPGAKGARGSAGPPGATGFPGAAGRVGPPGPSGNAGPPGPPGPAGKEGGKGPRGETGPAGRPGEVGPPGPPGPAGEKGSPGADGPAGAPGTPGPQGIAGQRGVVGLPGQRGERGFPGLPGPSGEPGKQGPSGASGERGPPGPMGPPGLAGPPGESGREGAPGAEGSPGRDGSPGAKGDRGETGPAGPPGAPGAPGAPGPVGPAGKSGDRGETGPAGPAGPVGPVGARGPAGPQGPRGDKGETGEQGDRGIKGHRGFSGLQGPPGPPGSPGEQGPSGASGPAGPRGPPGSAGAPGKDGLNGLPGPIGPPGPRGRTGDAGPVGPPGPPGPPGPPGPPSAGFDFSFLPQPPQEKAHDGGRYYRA
T1 sequence (P08123 80-1119 limits assumed, chain 2 of 2): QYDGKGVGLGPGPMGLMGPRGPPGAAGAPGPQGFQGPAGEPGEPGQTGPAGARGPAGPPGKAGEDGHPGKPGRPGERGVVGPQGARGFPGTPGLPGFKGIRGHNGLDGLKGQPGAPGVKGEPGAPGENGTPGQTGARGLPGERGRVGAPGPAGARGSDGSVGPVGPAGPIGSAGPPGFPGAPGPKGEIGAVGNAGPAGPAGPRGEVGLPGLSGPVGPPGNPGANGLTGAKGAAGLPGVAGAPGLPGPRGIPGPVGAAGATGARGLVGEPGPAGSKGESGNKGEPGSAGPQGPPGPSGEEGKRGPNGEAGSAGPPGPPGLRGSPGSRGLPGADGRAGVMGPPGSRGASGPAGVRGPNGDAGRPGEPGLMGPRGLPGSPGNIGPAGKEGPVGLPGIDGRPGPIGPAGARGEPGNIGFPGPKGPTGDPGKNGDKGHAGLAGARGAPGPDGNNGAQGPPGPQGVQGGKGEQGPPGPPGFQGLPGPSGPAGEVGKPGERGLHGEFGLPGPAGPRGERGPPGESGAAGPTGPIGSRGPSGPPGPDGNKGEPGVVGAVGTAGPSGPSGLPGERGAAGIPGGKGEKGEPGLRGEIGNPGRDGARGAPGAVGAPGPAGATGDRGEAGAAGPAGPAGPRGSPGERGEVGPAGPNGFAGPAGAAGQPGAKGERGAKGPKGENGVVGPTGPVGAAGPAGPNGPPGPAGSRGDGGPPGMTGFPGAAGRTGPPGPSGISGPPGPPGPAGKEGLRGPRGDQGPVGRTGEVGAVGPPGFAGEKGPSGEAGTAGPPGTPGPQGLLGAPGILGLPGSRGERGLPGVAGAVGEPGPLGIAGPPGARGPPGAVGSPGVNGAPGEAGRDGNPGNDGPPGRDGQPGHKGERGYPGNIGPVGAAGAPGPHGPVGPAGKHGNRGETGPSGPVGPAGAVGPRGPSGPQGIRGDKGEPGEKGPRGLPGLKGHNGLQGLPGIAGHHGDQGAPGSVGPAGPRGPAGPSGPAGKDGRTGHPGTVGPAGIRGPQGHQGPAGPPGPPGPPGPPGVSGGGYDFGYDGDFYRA

% bound [%] | Binder
22 | PWTCRMTENTWVCDLN (disulfide 4-13 (inferred)) [SEQ ID NO: 47]
12 | AWTCVGGEKTWGCVWN (disulfide 4-13 (inferred)) [SEQ ID NO: 33]
56 | WWTCHMTWSGQWDSCKWH (disulfide 4-15 (inferred)) [SEQ ID NO: 101]
78 | DWTCSGDEYTWHCNYE (disulfide 4-13 (inferred)) [SEQ ID NO: 17]
70 | DWTCSGDEYRWHCNYE (disulfide 4-13 (inferred)) [SEQ ID NO: 19]
83 | DWTCRGDEYTWHCNYE (disulfide 4-13 (inferred)) [SEQ ID NO: 14]
83 | DWTCSGDEYYWHCNYE (disulfide 4-13 (inferred)) [SEQ ID NO: 16]
78 | DWTCSGDEYTWYCNYE (disulfide 4-13 (inferred)) [SEQ ID NO: 18]
83 | DWTCYGDEYTWHCNYE (disulfide 4-13 (inferred)) [SEQ ID NO: 15]
55 | DWECHGNEFEWNCLMR (disulfide 4-13 (inferred)) [SEQ ID NO: 22]
34 | TWACGWTTTGWDNCRWI (disulfide 4-14 (inferred)) [SEQ ID NO: 90]
16 | GWDCQGTDNIWECVRK (disulfide 4-13 (inferred)) [SEQ ID NO: 30]
11 | NWYCTGTKSWECFWK (disulfide 4-12 (inferred)) [SEQ ID NO: 7]
23 | GWVCLQKGPKWVCDWD (disulfide 4-13 (inferred)) [SEQ ID NO: 46]
2 | YPACDDQTHLWNLACWPA (disulfide 4-15 (inferred)) [SEQ ID NO: 103]
12 | NWVCSGDHADWSCALI (disulfide 4-13 (inferred)) [SEQ ID NO: 32]
8 | YWVCGGDHQSWHCSHP (disulfide 4-13 (inferred)) [SEQ ID NO: 35]
5 | WWACQKGQHDWEKCHWL (disulfide 4-14 (inferred)) [SEQ ID NO: 93]
1 | VWACRGGTTNWHCDL (disulfide 4-13 (inferred)) [SEQ ID NO: 41]

% bound [%] | Binder
17 | WQLCSSRNDHVAYCFVS (disulfide 4-14 (inferred)) [SEQ ID NO: 96]
34 | TWACGWTTTGWDNCRWI (disulfide 4-14 (inferred)) [SEQ ID NO: 92]
39 | IWLCTGGAATWNCKFD (disulfide 4-13 (inferred)) [SEQ ID NO: 25]
1 | FWTCMRDQVGEWHCGTE (disulfide 4-14 (inferred)) [SEQ ID NO: 88]
11 | MWDCTGNSAEWRCEMQ (disulfide 4-13 (inferred)) [SEQ ID NO: 34]
21 | WTDCQWMDEQLWTCRWD (disulfide 4-14 (inferred)) [SEQ ID NO: 94]
5 | WTDCQWMDEQIWTCRWD (disulfide 4-14 (inferred)) [SEQ ID NO: 95]
64 | PWYCSGDHLDWKCIYQ (disulfide 4-13 (inferred)) [SEQ ID NO: 20]
24 | SWHCFGDNENWMCNLR (disulfide 4-13 (inferred)) [SEQ ID NO: 27]
45 | TWMCVDPPLWRCWVQ (disulfide 4-12 (inferred)) [SEQ ID NO: 4]
7 | PMICHAPYVGKCNFL (disulfide 4-12 (inferred)) [SEQ ID NO: 12]
67 | WWGCRQGTGEHWSHCMWF (disulfide 4-15 (inferred)) [SEQ ID NO: 100]
16 | DWICHGDFDTWKCDLQ (disulfide 4-13 (inferred)) [SEQ ID NO: 29]
7 | TWNCYGVTEWHCYMI (disulfide 4-12 (inferred)) [SEQ ID NO: 9]
40 | TWRCDQFKGKWVCRGG (disulfide 4-13 (inferred)) [SEQ ID NO: 42]
22 | AWSCWIVEGRWNCSDI (disulfide 4-13 (inferred)) [SEQ ID NO: 48]
20 | TWQCSGNQKWSCEWF (disulfide 4-12 (inferred)) [SEQ ID NO: 6]
15 | GWVCGGDHTTWECHLQ (disulfide 4-13 (inferred)) [SEQ ID NO: 31]
20 | SWICTGDNIDWNCRFA (disulfide 4-13 (inferred)) [SEQ ID NO: 28]

% bound [%] | Binder
19 | AWFCSQKNRLWSCGET (disulfide 4-13 (inferred)) [SEQ ID NO: 49]
57 | DWTCVGDHKTWKCNFH (disulfide 4-13 (inferred)) [SEQ ID NO: 21]
3 | EWRCRGDSSSWLCDYT (disulfide 4-13 (inferred)) [SEQ ID NO: 40]
13 | WISCESSEEKISYCWRA (disulfide 4-14 (inferred)) [SEQ ID NO: 97]
43 | EWLCVGDSLKWYCKHS (disulfide 4-13 (inferred)) [SEQ ID NO: 24]
25 | EWQCTQYANQWNCKYN (disulfide 4-13 (inferred)) [SEQ ID NO: 45]
31 | WAYCMTDPSGKYRYCQNW (disulfide 4-15 (inferred)) [SEQ ID NO: 102]
9 | LTVCHPPYYGRCNFV (disulfide 4-12 (inferred)) [SEQ ID NO: 10]
15 | RWSCWLDENGWKCDGT (disulfide 4-13 (inferred)) [SEQ ID NO: 52]
28 | GWNCYEYDSQWICDHL (disulfide 4-13 (inferred)) [SEQ ID NO: 44]
1 | KWHCELDSHMEWSCSGH (disulfide 4-14 (inferred)) [SEQ ID NO: 89]
3 | AKKCWYNDGGHLRCRTL (disulfide 4-14 (inferred)) [SEQ ID NO: 99]
25 | WRCDGDAHDWHCDWF (disulfide 3-12 (inferred)) [SEQ ID NO: 26]
30 | PWQCYSDKTSWVCNLY (disulfide 4-13 (inferred)) [SEQ ID NO: 43]
18 | KWFCELMQDQWQCGSK (disulfide 4-13 (inferred)) [SEQ ID NO: 50]
18 | KWFCELMHDQWQCGSK (disulfide 4-13 (inferred)) [SEQ ID NO: 51]
44 | AWDCSGNIPTWYCRRL (disulfide 4-13 (inferred)) [SEQ ID NO: 23]
9 | PLVCHPPYSGSCSLH (disulfide 4-12 (inferred)) [SEQ ID NO: 11]
24 | NWKCWGVVKWECIWA (disulfide 4-12 (inferred)) [SEQ ID NO: 5]
